Source: patent US20230008694

Tests used:
Test in all cases: cell_activity
[1] = test system: GmFAD3_T08-R1 half-TALEN (synthetic (TAL effector-FokI))
[2] = test system: GmFAD3_T09-R1 half-TALEN (synthetic (TAL effector-FokI))
[3] = test system: GmFAD2_T04-R1 half-TALEN (synthetic (TAL effector-FokI)); conditions: pair with T04-L1 at FAD2-1A (FAD2-1B 3.54)
[4] = test system: GmFAD2_T02-L1 half-TALEN (synthetic (TAL effector-FokI)); conditions: pair with T02-R1 at FAD2-1A (FAD2-1B 1.19)
[5] = test system: GmFAD2_T03-L1 half-TALEN (synthetic (TAL effector-FokI)); conditions: pair with T03-R1 at FAD2-1A (FAD2-1B 3.94)
[6] = test system: GmFAD2_T01-L1 half-TALEN (synthetic (TAL effector-FokI)); conditions: pair with T01-R1 at FAD2-1A (FAD2-1B 3.41); soybean protoplasts
[7] = test system: GmFAD2_T03-R1 half-TALEN (synthetic (TAL effector-FokI)); conditions: pair with T03-L1 at FAD2-1A (FAD2-1B 3.94)
[8] = test system: GmFAD2_T02-R1 half-TALEN (synthetic (TAL effector-FokI)); conditions: pair with T02-L1 at FAD2-1A (FAD2-1B 1.19)
[9] = test system: GmFAD3_T08-L1 half-TALEN (synthetic (TAL effector-FokI))
[10] = test system: GmFAD3_T09-L1 half-TALEN (synthetic (TAL effector-FokI))
[11] = test system: GmFAD2_T01-R1 half-TALEN (synthetic (TAL effector-FokI)); conditions: pair with T01-L1 at FAD2-1A (FAD2-1B 3.41)
[12] = test system: GmFAD2_T04-L1 half-TALEN (synthetic (TAL effector-FokI)); conditions: pair with T04-R1 at FAD2-1A (FAD2-1B 3.54)

Sequence: CACATTGAGAAGGATGA (double strand) [GmFAD3_T08-R1 half-site]
- activity ([1]; pair with T08-L1 at FAD3A (FAD3B 14.57), with T09-L1 12.37 at FAD3A, 11.17 at FAD3B): 22.9 % NHEJ
- activity ([2]; pair with T08-L1 at FAD3A (FAD3B 1.80), mismatched right half-site, with T09-L1 6.46 (FAD3B 3.61)): 6.56 % NHEJ

Sequence: CATGTTGAGAAGGATGA (double strand) [GmFAD3_T09-R1 half-site]
- activity ([1]; pair with T09-L1 at FAD3C, mismatched right half-site, with T08-L1 3.59): 5.98 % NHEJ
- activity ([2]; pair with T09-L1 at FAD3C, with T08-L1 7.60): 11.3 % NHEJ

Sequence: TAGGTGGTGGCAATGTA (double strand) [GmFAD2_T04-R1 half-site]
- activity [3]: 4.67 % NHEJ

Sequence: TATGTTGTTTATGACCT (double strand) [GmFAD2_T02-L1 half-site]
- activity [4]: 0.91 % NHEJ

Sequence: TCCTATGTTGTTTATGA (double strand) [GmFAD2_T03-L1 half-site]
- activity [5]: 4.91 % NHEJ

Sequence: TCTCAAGGGTTCCAAAC (double strand) [GmFAD2_T01-L1 half-site]
- activity [6]: 3.95 % NHEJ

Sequence: TGGCAATGTAGAAAATG (double strand) [GmFAD2_T03-R1 half-site]
- activity [7]: 4.91 % NHEJ

Sequence: TGGTGGCAATGTAGAAA (double strand) [GmFAD2_T02-R1 half-site]
- activity [8]: 0.91 % NHEJ

Sequence: TTAGCCACAGAACTCAC (double strand) [GmFAD3_T08-L1 half-site]
- activity ([9]; pair with T08-R1 at FAD3A (FAD3B 14.57), soybean protoplasts 48 h): 22.9 % NHEJ
- activity ([10]; pair with T08-R1 at FAD3A (FAD3B 11.17), mismatched left half-site): 12.4 % NHEJ

Sequence: TTAGCCACAGGACTCAC (double strand) [GmFAD3_T09-L1 half-site]
- activity ([9]; pair with T09-R1 at FAD3C, mismatched left half-site, with T08-R1 3.59): 7.6 % NHEJ
- activity ([10]; pair with T09-R1 at FAD3C, multiplex T09-L1/T08-R1/T09-R1 21.42 (Table 2)): 11.3 % NHEJ

Sequence: TTGAGTTGGCCAACAGT (double strand) [GmFAD2_T01-R1 half-site]
- activity [11]: 3.95 % NHEJ

Sequence: TTGTTTATGACCTTTCA (double strand) [GmFAD2_T04-L1 half-site]
- activity [12]: 4.67 % NHEJ
